Reference: article PMC12274480 (Communications Chemistry, 2025)

Target: Nn8 (fraction 8 from N. nivea venom) (Naja nivea, UniProt P01390, biotin (site not stated))
Test: BLI

Sequence of Nn8 (fraction 8 from N. nivea venom) (P01390 whole entry, looked up): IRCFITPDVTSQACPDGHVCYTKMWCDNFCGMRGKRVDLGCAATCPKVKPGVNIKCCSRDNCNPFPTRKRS

B1: TPL1158_01_C09 (VHH)
VHH: QVQLQESGGGLVQPGGSLRLSCAASGDIGGLKQMGWYRQAPGHQRELVAVKRNENEANYTESVKGRFTISRDNARKMVYLQMNSLKPEDTAVYYCNAVVGNWYTSGYYEDTYWGQGTQVTVSS
- Kd: 63 nM
